Experimental data published in patent publication US20110135656A1.

Molecular target: C5a receptor (mouse) (UniProt P30993)
Assay: cell-based or functional assay

Sequence of C5a receptor (mouse) (P30993 whole entry): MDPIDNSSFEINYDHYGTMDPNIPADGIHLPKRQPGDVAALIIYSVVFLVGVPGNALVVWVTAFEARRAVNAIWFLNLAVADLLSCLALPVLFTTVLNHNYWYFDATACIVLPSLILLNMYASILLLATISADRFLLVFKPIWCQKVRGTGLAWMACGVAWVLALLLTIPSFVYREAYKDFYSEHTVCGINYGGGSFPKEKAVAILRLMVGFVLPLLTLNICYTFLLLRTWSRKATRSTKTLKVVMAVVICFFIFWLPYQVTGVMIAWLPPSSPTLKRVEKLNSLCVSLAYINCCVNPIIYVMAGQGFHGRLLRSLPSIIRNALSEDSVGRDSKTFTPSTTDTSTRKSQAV

How did the 6 hr viability of C5-deficient or C3-/- T cells in serum-free medium turn out when “Murine C5a (from UniProt P06684 679-755) (ligand)” was run?
Its 6 hr viability of C5-deficient or C3-/- T cells in serum-free medium is 25%.
